Patent publication US20190169692

Target: YB-1 protein, P67809
Sequence (P67809 whole entry, looked up): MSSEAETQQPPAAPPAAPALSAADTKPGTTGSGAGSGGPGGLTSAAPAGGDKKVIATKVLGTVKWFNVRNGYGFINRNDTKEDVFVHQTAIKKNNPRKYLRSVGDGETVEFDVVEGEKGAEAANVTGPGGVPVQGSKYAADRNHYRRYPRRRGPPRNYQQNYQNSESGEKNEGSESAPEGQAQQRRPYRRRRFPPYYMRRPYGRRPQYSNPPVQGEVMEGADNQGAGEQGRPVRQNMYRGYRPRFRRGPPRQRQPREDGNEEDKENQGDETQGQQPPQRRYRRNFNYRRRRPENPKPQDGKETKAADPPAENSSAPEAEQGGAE

B1: serine threonine kinase 32C (STK32C) (protein)
chain: MRSGAERRGSSAAASPGSPPPGRARPAGSDAPSALPPPAAGQPRARDSGDVRSQPRPLFQWSKWKKRMGSSMSAATARRPVFDDKEDVNFDHFQILRAIGKGSFGKVCIVQKRDTEKMYAMKYMNKQQCIERDEVRNVFRELEILQEIEHVFLVNLWYSFQDEEDMFMVVDLLLGGDLRYHLQQNVQFSEDTVRLYICEMALALDYLRGQHIIHRDVKPDNILLDERGHAHLTDFNIATIIKDGERATALAGTKPYMAPEIFHSFVNGGTGYSFEVDWWSVGVMAYELLRGWRPYDIHSSNAVESLVQLFSTVSVQYVPTWSKEMVALLRKLLTVNPEHRLSSLQDVQAAPALAGVLWDHLSEKRVEPGFVPNKGRLHCDPTFELEEMILESRPLHKKKKRLAKNKSRDNSRDSSQSENDYLQDCLDAIQQDFVIFNREKLKRSQDLPREPLPAPESRDAAEPVEDEAERSALPMCGPICPSAGSG
With B1 the “in vitro kinase assay with P32-labeled ATP (YB-1 with serine 165 / serine 167 mutated to alanine as substrate, STK32C as enzyme source)” value was “it was confirmed that the serine 167 of the YB-1 substrate protein was phosphorylated by SKT32C”.
